Experimental data as given in patent US20050255113A1, “Methods and compositions for inhibiting polypeptide accumulation associated with neurological disorders” (New York State Department of Health and Abgenix, Inc., priority 1999, published 2005).

Assays:
Assay type in all cases: cell-based
[1] = system: HD-polyQ-GFP aggregation in COS-7, BHK-21 and HEK 293 cells; experiment: Quantitation of SDS-insoluble fluorescent aggregates after co-transfection of sFv and HD-polyQ-GFP; conditions: for number of SDS-insoluble fluorescent aggregates: intrabody to antigen plasmid ratio 5:1, HD-polyQ72 or Q104, 48 hours, COS-7, BHK-21, HEK 293, versus empty vector/control
Method: Cells are shown photographed live at 48 hours after transfection by the calcium phosphate method; aggregates appear as intense foci of GFP signals. […] […] Cells were lysed with 2% SDS/2% Triton X-100/50 mM Tris at 48 hours after co-transfection. The number of insoluble, fluorescent aggregates in six or eight random fields was counted. Bars represent means of sextuplicate co-transfections ±SEM.
In particular, it was observed that the formation of pathological HD aggregates in situ display a striking punctate fluorescent morphology with polyglutamine lengths of 40 or more residues (i.e., with Q72 or Q104, but not Q25; FIG. 14). In addition, because these polypeptide aggregates are detergent-insoluble, a method for improved quantitation of residual fluorescent bodies after SDS lysis of transfected cells could be performed (Kazantsev et al., PNAS 96:11404-11409 (1999)). This improved assay allows for polypeptide aggregates to be more accurately enumerated because the plane of focus is eliminated as a variable in the experiment. Accordingly, this assay was utilized for quantitation of polyQ antigen aggregation, alone or in the presence of C4 sFv or control intrabody. COS-7, BHK, and 293 cells were co-transfected with plasmids that express the C4 or a control intrabody and HD-polyQ-eGFP fusions containing Q25, Q72, or Q104.

[2] = system: DRPLA polypeptide (GFP-DRPLA-35Q, GFP-DRPLA-Q81); experiment: Intrabody retargeting specificity in COS-7 cells with DRPLA polypeptide (immunofluorescence); conditions: COS-7 co-transfection
DRPLA polypeptide (GFP-DRPLA-35Q, GFP-DRPLA-Q81), sequence (P54259 with tags, fused parts or gaps DUP487-502): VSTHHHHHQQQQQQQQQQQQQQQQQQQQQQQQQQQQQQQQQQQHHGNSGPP
Method: (§1) COS 7 cells were grown on cover glass in 6-well plates (10^5 cells/well) and co-transfected at a ratio of 3:1 (sFv to target) with plasmids containing either N-HD-C4 sFv or a negative control sFv (containing an HA tag and SV40 nuclear localization sequence (NLS)) and plasmids containing GFP-targeted fusion proteins using 5 μl SuperFect transfection reagent (QIAGEN). At 24 hours post-transfection, cells were prepared for immunofluorescence as follows: cells were fixed with 4% paraformaldehyde and permeabilized with 0.2% triton-X100. To prevent non-specific binding of secondary antibodies, cells were blocked with 10% normal goat serum in 3% BSA.
The model DRPLA target polypeptide was fused to a GFP domain to track the expression and intracellular localization of the target polypeptide in the transfected cells. In addition, two different intrabodies, one specific to huntingtin, and a second intrabody specific to an unrelated polypeptide, were independently cotransfected with the DRPLA target polypeptide.
FIGS. 13A-F show stably transfected COS-7 cells expressing α-Nt-HD-C4 sFv-HA-NLS which were further transfected with plasmids encoding either the model altered huntingtin polypeptide with 104 glutamine repeats (FIGS. 13B, D, F) or the model altered DRPLA polypeptide with 81 glutamine repeats (FIGS. 13A, C, E). […]

[3] = system: HD-72Q-GFP protein expression; experiment: Immunoblot of HD-72Q-GFP protein expression in co-transfections; conditions: 5:1 co-transfections, 24 hours, different transfection paradigms
Method: Some aggregates are found in 104Q co-transfections (never in 25Q), often in cells not expressing C4 (arrowheads), but in some dually-transfected cells as well (arrow). […] Cell lysates were collected from 5:1 co-transfections (sFv:HD-72Q-GFP) in duplicate at 24 hours (prior to prominent aggregate formation and loss of HD-72Q-GFP to the insoluble compartment) and subjected to SDS-PAGE. The membrane was probed with 1:1000 […] primary antibody (Quantum), stripped and reprobed with 1:500 anti-actin antibody (Sigma). HD-72Q-GFP bands were of similar intensity after detection by HRP-conjugated secondary antibody and chemiluminescence.
The typical intrabody constructs were fused to a C-terminal hemagglutinin (HA) peptide tag to facilitate immunodetection of the protein, while keeping the protein localized to the cytosol. […] The diffuse labeling was also characteristic of the normal length (25Q) construct, with or without intrabody co-transfection (FIG. 15).

[4] = system: model huntingtin polypeptide (HD-25Q-GFP, pHD-104Q-GFP, HD-Q104-myc, GFP-HD-Q104); experiment: Intrabody retargeting of model huntingtin polypeptide in co-transfected COS-7 cells (immunofluorescence); conditions: co-transfected mammalian cells
model huntingtin polypeptide (HD-25Q-GFP, pHD-104Q-GFP, HD-Q104-myc, GFP-HD-Q104), sequence (as listed by the source): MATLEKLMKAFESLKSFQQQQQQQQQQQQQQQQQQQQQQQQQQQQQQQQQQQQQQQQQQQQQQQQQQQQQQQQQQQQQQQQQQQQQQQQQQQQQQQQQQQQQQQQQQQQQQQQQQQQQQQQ
Method: as §1
The assay is designed such that both the target antigen, i.e., the model huntingtin polypeptide, and the intrabody can be visualized. In particular, the huntingtin polypeptide is visualized by detecting fluorescence emitted by the GFP domain of the huntingtin-GFP fusion polypeptide and the intrabodies tested are visualized using a rhodamine-conjugated antibody that can specifically bind to the intrabody.
The model HD target polypeptide was fused to c-myc (EQKLISEEDL (SEQ ID NO: 45)) epitope tag (HD-Q104-myc). The intrabodies sequences were fused to a HA tag and a SV40 nuclear localization signal (sFv-HA-NLS), so that bound antigens should be retargeted to the cell nuclei. At 48 hours post-transfection, cells were fixed and permeabilized. The HD-Q104-myc proteins were detectable using anti-myc epitope antibodies (i.e., MAb 9E10 IgG), followed by FITC-labeled goat anti-mouse IgG. The sFv-HA-NLS intrabodies were detected by polyclonal rabbit anti-HA IgG followed by rhodamine-conjugated goat anti-rabbit IgG antibodies.
FIGS. 13A-F show stably transfected COS-7 cells expressing α-Nt-HD-C4 sFv-HA-NLS which were further transfected with plasmids encoding either the model altered huntingtin polypeptide with 104 glutamine repeats (FIGS. 13B, D, F) or the model altered DRPLA polypeptide with 81 glutamine repeats (FIGS. 13A, C, E). Both model altered polypeptides were fused to GFP (GFP-HD-Q104 and GFP-DRPLA-Q81, respectively).

B1: C4 sFv: human single-chain Fv intrabody from phage display, specific for the 17 N-terminal residues of huntingtin; SEQ ID NO: 6 (protein)
scFv: QVQLQESGGGLVQPGGSLRLSCAASGFTFSSYSMSWVRQAPGKGLEWVAVISYDGSNKYYADSVKGRFTISRDNSKNTLYLQMNSLRAEDTAVYYCARDRYFDLWGRGTLVTVSSGGGGSGGGGSGGGGSQSALTQPASVSGSPGQSITISCTGTSSDIGAYNYVSWYQQYPGKAPKLLIYDVSNRPSGISNRFSGSKSGDTASLTISGLQAEDEADYYCSSFANSGPLFGGGTKVTVL
- extent of aggregation ([1]; intrabody to antigen plasmid ratio 3:1, HD-polyQ72-eGFP or HD-polyQ104-eGFP): qualitative decrease in the extent of aggregation
- number of SDS-insoluble fluorescent aggregates [1]: pronounced reduction in aggregation
- number of SDS-insoluble fluorescent aggregates ([1]; listed as C4): significantly reduced the number of aggregates
- cellular distribution of GFP-DRPLA-35Q [2]: no change in the cellular distribution of DRPLA polypeptide
- HD protein expression level [3]: indistinguishable levels of products
- retargeting of altered huntingtin polypeptide with 104 glutamines (pHD-104Q-GFP) [4]: can specifically retarget the cellular distribution of the model altered huntingtin polypeptide
